What is called stoichiometry N is a count of units in the complex or per binding partner.

The data set concerns the molecule itself. Put plainly: intact protein mass determination (UHPLC-HRMS); reverse-phase C4 column, water/acetonitrile with 0.1% formic acid, electrospray, QTof; covalent (disulphide) dimer.

B1: Noggin (residues 28-232) (natural protein)
chain: MQHYLHIRPAPSDNLPLVDLIEHPDPIFDPKEKDLNETLLRSLLGGHYDPGFMATSPPEDRPGGGGGAAGGAEDLAELDQLLRQRPSGAMPSEIKGLEFSEGLAQGKKQRLSKKLRRKLQMWLWSQTFCPVLYAWNDLGSRFWPRYVKVGSCFSKRSCSVPEGMVCKPSKSVHLTVLRWRCQRRGGQRCGWIPIQYPIISECKCSC
modifications: biotin (biotinylated Noggin in the BLI experiments); methionine oxidation, mainly on the N-terminal methionine, in part of the sample
notes: Noggin, residues 28-232 of UniProt Q13253; Disulphide-linked homodimer; No tag (pET-17(b)); for the crystal, SEC-MALS and cell assays no biotinylation is mentioned; also called antagonist Noggin; recombinant Noggin
Regarding B1, the “stoichiometry N” value was found to be 2.

Source of the values: article PMC9929448, “Structural analysis of the interaction between human cytokine BMP-2 and the antagonist Noggin reveals molecular details of cell chondrogenesis inhibition” (The Journal of Biological Chemistry, 2023).
